assay: yeast display, Sf9 membrane polyspecificity reagent, FACS + sequencing; frameworks hold sequencing errors
Outline: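 Galactose-induced (36–48 hours) yeast carrying a synthetic nanobody display library were exposed to 10% biotinylated, detergent-solubilized Sf9 membrane reagent at 4 °C for 1 hour. FACS followed streptavidin microbead enrichment, using low and high (top ~1%) gates for expression (anti-HA) and reagent binding (streptavidin). Colony PCR, MiSeq 2 × 250 sequencing and CDR-length filtering followed. Labels for polyreactivity reflect the gate of origin.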

Sequence	polyreactivity (PSR sort gate)
QVQLVESGGGLVQAGGSLRLSCAASGGTFTKNPMGWYRQAPGKERELVATITFSDGSTYYADSVKGRFTISRDNAKNTVYLQMNSLKPEDTAVYYCNARRSYFLRYGVNYWGQGTQVTVSS	low polyreactivity
QVQLVESGGGLVQAGGSLRLSCAASGGTFTRYAMGWYRQAPGKEREFVAAITFSGGSTYYADSVKGRFTISRDNAKNTVYLQMNSLKPEDTAVYYCAVRERSTYRYYYWGQGTQVTVSS	high polyreactivity
QVQLVESGGGLVQAGGSLRLSCAASGGTFTYYAMGWYRQAPGKVRELVAAISWSGGSTYYADSVKGRFTISRDIAKNSVYLQMNSLKPEDSAVYYCAADYTGHFYYYWGQGTQVTVSS	low polyreactivity
QVQLVESGGGLVQAGGSLRLSCAASGGTFVGNAMGWYRQAPGKERELVAAISTNSGSTYYADSVKGRFTISRDNAKNTVYLQMNSLKPEDTAVYYCATRNSSKRRGYYYWGQGTQVTVSS	high polyreactivity
QVQLVESGGGLVQAGGSLRLSCAASGGTFVYYAMGWYRQAPGKERELVAAINWSGGSTYYADSVKGRFTISRDNAKNTVYLQMNSLKPEDTAVLLLQRSGLRRSGVWFDYWGQGTQVTVSS	low polyreactivity
QVQLVESGGGLVQAGGSLRLSCAASGGTFWLYTMGWYRQAPGTERELVAAITKSGGSTYYADSVKGRFTISRDNAMNTVYLQMNSLKPEDTAVYYCAARYSVYRDGYYWGQGTQVTVSS	high polyreactivity
QVQLVESGGGLVQAGGSLRLSCAASGGTFWYYDMGWYRQAPGKERELVAAISSGGNTYYADSVKGRFTISRDNAKNTVYLQMNSLKREDNAVYYWAALPKYGSYYYYPPFDYDYWGHGTQVTVSS	low polyreactivity
QVQLVESGGGLVQAGGSLRLSCAASGGTFYLYAMGWYRQAPGKERELVAAISRSGGITYYADSVKGRFTISRDNAKNTVYLQMNSLKPEDTAVYYCDAAALSRYRLQEGYYWGQGTQVTVSS	high polyreactivity
QVQLVESGGGLVQAGGSLRLSCAASGGTFYRNAMGWYRQAPGKERELVASISRTGGSTYYADSVKGRFTISRDIAKNTVYLQMNSLKPEDTAVYYCAKKQPRYSYFDNDYWGQGTQVTVSS	high polyreactivity
QVQLVESGGGLVQAGGSLRLSCAASGGTFYRNDMGWYRQAPGKERELVAVITYRGGSTDYADSVKGRFTISRDNAKNTVYFQMNSLKPEDTAVYYCAVDYTFSYPYEDDYWGQGTQVTVSS	low polyreactivity
QVQLVESGGGLVQAGGSLRLSCAASGGTFYVNDMGWYRQAPGKERELVATITYSGTSTYYADSVKGRFTISRDNAKNTVYLQMNSLKAEDTAVYYCATDVLLYFEPVNLDYWGQGTQVTVSS	low polyreactivity
QVQLVESGGGLVQAGGSLRLSCAASGGTFYYYAMGWYRQPPGKERELGAAITGTGGRTYYADSVKGRFTISRDNAKNTVSLQMNSLKPEDTAVYYCATDALYGSGYDYWGQGTQVTVSS	high polyreactivity
QVQLVESGGGLVQAGGSLRLSCAASGGTIAYNAMGWYRQAPWKERELVAAISSSGGRTYYADSVKGRFTITRDNAKNTVYLQMNRLKPEDTAVYYCATPVTNGFDYWGQGTQVTVSS	high polyreactivity
QVQLVESGGGLVQAGGSLRLSCAASGGTILLYAMGWYRQAPGKERELVAGINSGGSTYYADSVKGRFTISRDNAKNTVYLQMNSLKPEDTAVYYCNARSTRYGGDYWGQGTQVTVSS	low polyreactivity
QVQLVESGGGLVQAGGSLRLSCAASGGTIVWNAMGWYRQAPGKEREFVAAITSSGGSTYYADSVKGRFTISRDNEKNTVYLQMNSLKPEDTAVYYCNVDTHSSYEFNSWGQGTQVTVSS	low polyreactivity
QVQLVESGGGLVQAGGSLRLSCAASGGTLGTYAMGWYRQAPGKERELVASIDSGDSTYYADSVKGRFTISRDNAKNTVYLQMNSLKPEDTAVYYCAAAYFRRYTTTWYGYEYWGQGTQVTVSS	low polyreactivity
QVQLVESGGGLVQAGGSLRLSCAASGGTLKYYAMGLYRQAPGKERELVATISSRGGSTYYADSVKGRFTISRDNAKNTVYLQMNSLKPEDTAVYYCARRYWVQSRYPEMDYWGQGTQVTVSS	high polyreactivity
QVQLVESGGGLVQAGGSLRLSCAASGGTLWVNTMGWYRQAPGKERELVAAISRRGGSTYYADSVKGRFTISRDNAKNTVYLQKNSLKPEDTAVYYCAKGYSSHYWWAYDSWGQGTQVTVSS	high polyreactivity
QVQLVESGGGLVQAGGSLRLSCAASGHIFFYYTMGWYRPAPGKERELVAGITIGGSTNYADSVKGRFTISRDNAKNTVYLQMNSLKPEDTAVYYCNVVKYVYIYSYWEYYYWGQGTQVTVSS	low polyreactivity
QVQLVESGGGLVQAGGSLRLSCAASGHIFFYYTMGWYRQAPGKERELVAGITIGGSTNYADSVKGRFTISRDNAKNTVYLQMNSLKPEVTAVYYCARTVYGARSYDYWGQCTQVTVSS	low polyreactivity
QVQLVESGGGLVQAGGSLRLSCAASGHTFAYNAMGWYRQAPGKEREFVAAITWSTDNTYYADSVKGRFTISRDNAKNTVYLQMNTLKPEDTAVYYCAVDVYFYYRHYGYWGQGTQVTVSS	low polyreactivity
QVQLVESGGGLVQAGGSLRLSCAASGIFASYAMGWYRQAPGKERELVADITWRGGNTFYADSVKGRFTISRDNAKNTVYLQMNSLKPEDTAVYYCAADYRPYLRYTVRGYGYWGQGTKVTVSS	high polyreactivity

Sequence	polyreactivity (PSR sort gate)
QVQLVESGGGLVQAGGSLRLSCAASGIFFGGYYLGWYRQAPATEMELVAGIRSGGSTYYADSVKGRFTISRDNAKNTVYLQMNSLKPEDTAVYYCAKPYYWGDYSQSDSDYWGQGTQVTVSS	low polyreactivity
QVQLVESGGGLVQAGGSLRLSCAASGIFGWYAMGWYRQAPGKEREFVATINWSGGRTYYADSVKGRFTISRDNAKNTVYLQMNSLKPEDTAVYYCAAENYASEYDYWGQGTQVTVSS	low polyreactivity
QVQLVESGGGLVQAGGSLRLSCAASGIFSIYAMGRYRQAPGKERELVAAITSGGGRTYYADSVKGRFTISRDNAKNTVYLQMNSLKPEDTAVYYCARVQRGDYDYWGQGTQVTVTS	high polyreactivity
QVQLVESGGGLVQAGGSLRLSCAASGIFSRYAIGWYRQAPGKERELVAAISSGDSTNYADSVKGRFTISRDNAKNTVYLQMNSLKPEDTAVYYCATERSHLATGQGYYYVQTFYYWGQGTQVTVSS	low polyreactivity
QVQLVESGGGLVQAGGSLRLSCAASGIFSRYAMGWYRQAPGKERELVAAISSGGSTYYADSVKGRFTISRDNAKNTVYLQMNSLKPEDTAVYYCAVKQRDKFAGGRNDYWGQGTQVTVSS	high polyreactivity
QVQLVESGGGLVQAGGSLRLSCAASGIFTYNAMGWYRQAPGKERELVASITRGGSTNYADSVKGRFTISLDNAKNTVYLQRNSLKPEDTAVYYCAARVRVYSGWLYNYWGQGTQVTVSS	high polyreactivity
QVQLVESGGGLVQAGGSLRLSCAASGIFYRNAMGWYRQAPGKERELVAAISWSGGSTYYADSVKGRFTISRDNAKNSVYLQMNSLKPEDTAFYYCAAVGGRYPSNVVGYYYWGQGTQVTVSS	high polyreactivity
QVQLVESGGGLVQAGGSLRLSCAASGIFYYNAMGWNIQAPGKERELVAAISYSGGRTYYADSVKGRFTISRDNAKNTVYLQMNSLKPEDTAVYYCNAAARYGRLGGDYWGQGTQVTVSS	high polyreactivity
QVQLVESGGGLVQAGGSLRLSCAASGIGHNAMGWYRQAPGKERELVAAISSSGGRTYYADSVKGRFTISRDNAKNTVYLQMNSLKPEDTAVYYCARRAVYGIFDYWGQGTQVTVSS	high polyreactivity
QVQLVESGGGLVQAGGSLRLSCAASGIIFAANAMGWYRQAPGKERELVAAISWSGTSTYYADSVKGRFTISRDNAKNTVYLQMNSLNPEDTAVYYCAVDYYLWSGYSYLYEFEYWGQGTQVTVSS	high polyreactivity
QVQLVESGGGLVQAGGSLRLSCAASGIIFAANTMGWYRQAPGKDREFVAAISKRGGTTYYADSVKGRFTISRDNAKNTVYLQMNSLKPEDSAVYYCNRRNGWSRGEYWGQGTQVTVSS	high polyreactivity
QVQLVESGGGLVQAGGSLRLSCAASGIIFAAYVMGWYRQAPGKERELVAAISKSGGRTYYADSVKGRFTISRDNAKNTVYLQMNSLKREDTAVYYCAASYTYYSIGLGTDVRYGYWGEGTQVTVSS	high polyreactivity
QVQLVESGGGLVQAGGSLRLSCAASGIIFAGNAMGWYRQAPGKERELVAAITRSTGSTYYADSVKGRFTISRDNAKNTVYLLMNSLKPEDTEVYYCNAGHFAHHHGYYRSKYDYWGQGTQVTVSS	low polyreactivity
QVQLVESGGGLVQAGGSLRLSCAASGIIFASYPMGWYRQAPGKESELVADINVTGGTTYYADTVKGRFTISRDNAKNTVYLQMNSLKPEDTAVYYCAARQSIFYSWTGVEYYYWGQGTQVTVSS	low polyreactivity
QVQLVESGGGLVQAGGSLRLSCAASGIIFAYNAMGWYRQAPGKERELVAAISVIAGTTYYADSVKGRFTISRDNAKNTVYLQMNSLKPEDTAVYYCAVDSVQYGGGYERLHELYYWGQGTQVTVSS	low polyreactivity
QVQLVESGGGLVQAGGSLRLSCAASGIIFAYNAMGWYRQAPGKERELVATITDSGGSTSYADSVKGRFTISRDNAKNTVYLQMNSLKPEDTAVYYCAVLPVYWYWRNYVYLSGYDYWGQGTQVTVSS	low polyreactivity
QVQLVESGGGLVQAGGSLRLSCAASGIIFAYNAMGWYRQAPGKEWELVAGITRNDGSTNYADSVKGRFTISRYNAMNTVYLQMNSLKPEDTAVYYCATGGWRWQRNPSYDYWGQGNQVTVSS	low polyreactivity
QVQLVESGGGLVQAGGSLRLSCAASGIIFAYYAMGWYRQAPGKERELVAAISWRGGSTYYADSVKGRFTISRDYAKNTVYLQMNSLKPEDTAVYYCAAAYLKKPYDYWGQGTQVTVSS	high polyreactivity
QVQLVESGGGLVQAGGSLRLSCAASGIIFCRYAMGWYTQAPGKERELVAAISSSGSTYYADSVKGRFTISRDNATNTVYLQMNSLKPEDTAVYYCAAYSYPAGEYDYWGQGTQVTVSS	low polyreactivity
QVQLVESGGGLVQAGGSLRLSCAASGIIFDAYGMGWYRQAPGKEMELVAAINTVGSTNYADSVKGRFTISRDNAKNTVYLQMNSLKPEDTAVYYCAADSYFYDPYDYWGQGTQVTVSS	low polyreactivity
QVQLVESGGGLVQAGGSLRLSCAASGIIFDDYAMGWYRQAPGKERELVAAITDSGGSTYYADSVKGRFTISRDNAKNTVYLQMNSLKPEDTAVYYCAARTQRRVNRVGYRSNYYYWGQGTQVTVSS	low polyreactivity
